In the FLAb antibody collection:

B1: unnamed (protein)
chain 1: EVQLVESGGGLVQPGGSLRLSCAASGFTLRSYSMNWVRQAPGKGLEWVSYISRSSHTIFYADSVKGRFTISRDNAKNSLYLQMDSLRDEDTAMYYCARVYSSGWHVSDYFDYWGQGILVTVSS
chain 2: AIQLTQSPSSLSASVGDRVTITCRASQGISSALAWYQQKPGKAPKLLIYDASSLESGVPSRFSGSGSGTDFTLTISSLQPEDFATYYCQQFNSYPLTFGGGTKVEIK
B2: unnamed (protein)
chain 1: EVQLQQPGSELVRPGASVKLSCKASGYTFTSYWMHWVKQRPGQGLEWIGNIYPGSRSTNYDEKFKSKATLTVDTSSSTAYMQLSSLTSEDSAVYYCTRNGDYYVSSGDAMDYWGQGTSVTVSS
chain 2: DIQMTQTTSSLSASLGDRVTISCRTSQDIGNYLNWYQQKPDGTVKLLIYYTSRLHSGVPSRFSGSGSGTDFSLTINNVEQEDVATYFCQHYNTVPPTFGGGTKLEIK
B3: unnamed (protein)
chain 1: QVQLVQSGAEVKKPGSSVKVSCKASGYTFGNYWMQWVRQAPGQGLEWMGAIYEGTGKTVYIQKFADRVTITADKSTSTAYMELSSLRSEDTAVYYCARLSDYVSGFGYWGQGTTVTVSS
chain 2: DIQMTQSPSSLSASVGDRVTITCRASKDISKYLNWYQQKPGKAPKLLIYYTSGYHSGVPSRFSGSGSGTDFTLTISSLQPEDFATYYCQQGDALPPTFGGGTKVEIK
B4: unnamed (protein)
chain 1: QVQLQESGPGLVKPSETLSLTCAVSGGSISGGYGWGWIRQPPGKGLEWIGSFYSSSGNTYYNPSLKSQVTISTDTSKNQFSLKLNSMTAADTAVYYCVRDRLFSVVGMVYNNWFDVWGPGVLVTVSS
chain 2: ESALTQPPSVSGAPGQKVTISCTGSTSNIGGYDLHWYQQLPGTAPKLLIYDINKRPSGISDRFSGSKSGTAASLAITGLQTEDEADYYCQSYDSSLNAQVFGGGTRLTVL
B5: unnamed (protein)
chain 1: QVQLVESGGGLVQPGGSLRLSCAASGFTFRSYAMSWVRQAPGKGLEWVSAISGRGDNTYYADSVKGRFTISRDNSKNTLYLQMNSLRAEDTAVYYCAKMTSNAFAFDYWGQGTLVTVSS
chain 2: QSVLTQPPSVSGAPGQRVTISCTGSSSNIGAGYGVHWYQQLPGTAPKLLIYGNTNRPSGVPDRFSGFKSGTSASLAITGLQAEDEADYYCQSYDSSLSGWVFGGGTKLTVL
B6: unnamed (protein)
chain 1: QVELVESGGGLVQPGGSLRLSCAASGFTFSSYAMSWVRQAPGKGLEWVSAINASGTRTYYADSVKGRFTISRDNSKNTLYLQMNSLRAEDTAVYYCARGKGNTHKPYGYVRYFDVWGQGTLVTVSS
chain 2: DIVLTQSPATLSLSPGERATLSCRASQSVSSSYLAWYQQKPGQAPRLLIYGASSRATGVPARFSGSGSGTDFTLTISSLEPEDFATYYCLQIYNMPITFGQGTKVEIK
B7: unnamed (protein)
chain 1: EVQLVESGGGVVQPGKSLRLSCAASGLTFSSYAVHWVRQAPGKGLEWVTLISYDGANQYYADSVKGRFTISRDNSKNTVYLQMNSLRPEDTAVYYCAVPGPVFGIFPPWSYFDNWGQGILVTVSS
chain 2: EIVLTQSPATLSVSPGERATLSCRASQVISHNLAWYQQKPGQAPRLLIYGASTRASGIPARFSGSGSGTDYTLTITSLQSEDFAVYYCQHYSNWPPRLTFGGGTKVEIK
B8: unnamed (protein)
chain 1: QVQLQESGPGLVRPSQTLSLTCTVSGFTFTDFYMNWVRQPPGRGLEWIGFIRDKAKGYTTEYNPSVKGRVTMLVDTSKNQFSLRLSSVTAADTAVYYCAREGHTAAPFDYWGQGSLVTVSS
chain 2: DIQMTQSPSSLSASVGDRVTITCKASQNIDKYLNWYQQKPGKAPKLLIYNTNNLQTGVPSRFSGSGSGTDFTFTISSLQPEDIATYYCLQHISRPRTFGQGTKVEIK
B9: unnamed (protein)
chain 1: EVQLVQSGAEVKKPGSSVKVSCKASGYTITDSNIHWVRQAPGQSLEWIGYIYPYNGGTDYNQKFKNRATLTVDNPTNTAYMELSSLRSEDTAFYYCVNGNPWLAYWGQGTLVTVSS
chain 2: DIQLTQSPSTLSASVGDRVTITCRASESLDNYGIRFLTWFQQKPGKAPKLLMYAASNQGSGVPSRFSGSGSGTEFTLTISSLQPDDFATYYCQQTKEVPWSFGQGTKVEVK
B10: unnamed (protein)
chain 1: QVQLQESGPGLVKPSQTLSLTCSFSGFSLSTSGMGVGWIRQPSGKGLEWLAHIWWDGDESYNPSLKSRLTISKDTSKNQVSLKITSVTAADTAVYFCARNRYDPPWFVDWGQGTLVTVSS
chain 2: DIQMTQSTSSLSASVGDRVTITCRASQDISNYLSWYQQKPGKAVKLLIYYTSKLHSGVPSRFSGSGSGTDYTLTISSLQQEDFATYFCLQGKMLPWTFGQGTKLEIK

Assay: patients with anti-drug antibodies; higher = more immunogenic

| Protein | patients with anti-drug antibodies [%] |
| --- | --- |
| B1 | 2.9 |
| B2 | 0 |
| B3 | 8.7 |
| B4 | 0 |
| B5 | 2.9 |
| B6 | 0 |
| B7 | 1 |
| B8 | 5.1 |
| B9 | 0 |
| B10 | 37 |
